Test results: patent US20040005688A1 (University of California, published 2004)

Target: T1, GST-fusion protein containing the PDZ domain of Dsh (Drosophila, UniProt P51140 250-338)
T1 construct: One of the smaller segments of the DM region made as GST fusions; not shown: glutathione S-transferase (GST) from a GST expression vector
T1 chain: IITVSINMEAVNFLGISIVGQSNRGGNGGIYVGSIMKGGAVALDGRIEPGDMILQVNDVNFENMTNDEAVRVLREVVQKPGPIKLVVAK
Assay: GST pull-down with segments of the DM region; in vitro kinase assay
Method: Lysates in buffer A with PIC were incubated with anti-Dsh or anti-DAK antibodies for 2-4 hours at 4° C. The immune complexes were collected by incubation with protein-A beads for 2 hours at 4° C., followed by centrifugation. The immunoprecipitates were then washed three times for 5-10 minutes each with Buffer A and subjected to SDS-PAGE or in vitro kinase assay. For precipitation by GST fusion proteins containing various regions of Dsh, lysates in buffer A with PIC were incubated for 2-4 hours at 4° C. with fusion proteins immobilized on glutathione agarose beads, followed by brief centrifugation. The glutathione beads were then washed three time for 5-10 minutes each with Buffer A and subjected to in vitro kinase assay, as described below.
The DAK activity was determined by a solid phase in vitro kinase assay after being brought down by immunoprecipitation (IP) or GST precipitation. The washed protein A or glutathione beads were then washed once with kinase buffer (50 mM Tris (pH 7.6), 10 mM MgCl₂) for 5 minutes at 4° C. The kinase reactions were carried out at room temperature for 30 minutes in a reaction volume of 20 μl containing 5:1 washed IP or GST beads, 1 μl [γ-³²P] ATP (10 μCi at 5000 Ci/mmol, Amersham) and 14 μl kinase buffer. […] The membranes were exposed to X-ray films or quantitated as indicated. […]

B1: Dishevelled Associated Kinase (DAK), endogenous kinase activity from Drosophila embryo and Clone-8 cell lysates (enzyme)
chain: MSTAMRTTLQSVPEALPADSVSNGTASNVAAPAAPVSSATNAVPPLAAVSSTTATYATNSISTSSHSVKDQQQQQQQQQHDSANANIVSLPPTTTPVANTNTMMPIVTSSNSATSNSTAATPTPASGAAATGGVGSVSQGPATVSASAANTNHSHQHSHQHHHHVANNMTTDGARLSSNNSAVVASSAINHHHHHTPGSGVAPTVNKNVLSTHSAHPSAIKQRTSSAKGSPNMQMRSSAPMRWRATEEHIGKYKLIKTIGKGNFAKVKLAKHLPTGKEVAIKIIDKTQLNPGSLQKLFREVRIMKMLDHPNIVKLFQVIETEKTLYLIMEYASGGEVFDYLVLHGRMKEKEARVKFRQIVSAVQYCHQKRIIHRDLKAENLLLDSELNIKIADFGFSNEFTPGSKLDTFCGSPPYAAPELFQGKKYDGPEVDVWSLGVILYTLVSGSLPFDGSTLRELRERVLRGKYRIPFYMSTDCENLLRKFLVLNPAKRASLETIMGDKWMNMGFEEDELKPYIEPKADLADPKRIEALVAMGYNRSEIEASLSQVRYDDVFATYLLLGRKSTDPESDGSRSGSSLSLRNISGNDAGANAGSASVQSPTHRGVHRSISASSTKPSRRASSGAETLRVGPTNAAATVAAATGAVGAVNPSNNYNAAGSAADRASVGSNFKRQNTIDSATIKENTARLAAQNQRPASATQKMLTTADTTLNSPAKPRTATKYDPTNGNRTVSGTSGIIPRRSTTLYEKTSSTEKTNVIPAETKMASAVKSSRHFPRNVPSRSTFHSGQTRARNNTALEYSGTSGASGDSSHPGRMSFFSKLSSRFSKRPNQ
notes: Native activity from lysates, not a defined construct; also called Dishevelled associated kinase activity; Dsh associated kinase activity
- binding result: no binding
